Tests used:
Assay in all cases: Y2H; output trait library
OsHOS59 aa 1-100 = molecular target: T1, OsHOS59 aa 1-100 (Oryza sativa, UniProt Q94LW4 113-212)
T1 construct: bait, Gal4 DBD fusion; also called PN20559; O. sativa Homeobox Protein HOS59, Fragment
T1 sequence: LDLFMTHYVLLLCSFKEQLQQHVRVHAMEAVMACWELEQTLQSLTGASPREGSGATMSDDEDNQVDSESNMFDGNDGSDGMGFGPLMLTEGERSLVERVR
Summary of the method: (§1)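 Myriad Genetics Inc. (Salt Lake City, Utah) supplied the automated, high-throughput yeast two-hybrid assay used to detect protein-protein interactions. A bait clone encoding a defined amino-acid fragment of a rice protein was screened against a rice prey library, either the input trait or the output trait library. To identify the interacting proteins, prey clones were retrieved and their encoding sequences were compared against databases by BLAST.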

OsCS aa 316-583 = molecular target: T2, OsCS aa 316-583 (Oryza sativa, UniProt A2Y0X2 316-583)
T2 construct: bait, Gal4 DBD fusion; also called PN19707
T2 sequence: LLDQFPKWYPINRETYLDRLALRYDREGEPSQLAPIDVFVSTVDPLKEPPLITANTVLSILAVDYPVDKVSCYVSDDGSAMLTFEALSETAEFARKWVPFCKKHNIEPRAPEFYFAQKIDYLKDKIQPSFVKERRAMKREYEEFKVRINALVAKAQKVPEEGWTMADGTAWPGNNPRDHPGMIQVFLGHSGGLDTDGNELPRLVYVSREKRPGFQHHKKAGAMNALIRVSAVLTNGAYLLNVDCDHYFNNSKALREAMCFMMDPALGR
Summary of the method: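 The values record whether an interaction was detected. In an automated, high-throughput yeast two-hybrid screen from Myriad Genetics Inc., rice protein fragments defined by amino-acid range were used as bait against rice prey clone libraries. Full-length genes were identified by BLAST comparison of the sequences encoding the interacting prey fragments against databases.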

OsMADS45 aa 50-198 = molecular target: T3, OsMADS45 aa 50-198 (Oryza sativa, UniProt P0C5B0 50-198)
T3 construct: bait, Gal4 DBD fusion; also called PN20231; O. sativa MADS box protein MADS45
T3 sequence: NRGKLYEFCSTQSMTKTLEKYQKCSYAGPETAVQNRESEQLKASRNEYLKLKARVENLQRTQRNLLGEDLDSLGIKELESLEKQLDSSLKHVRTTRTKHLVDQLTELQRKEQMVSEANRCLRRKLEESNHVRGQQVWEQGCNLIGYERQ
Summary of the method: as §1

B1: OsAAG13633 aa 799-951 (other)
chain: IRSLKFEYDNLKILMSTNDSEKHNLASQVLKLRRALESREDVKQNGVKSDEDNHHATSKRIKHDDGTTGSCNVLPSTNRHNANGDCNGHDRRDAAHDQSVKELEILKERNTALEEELKELHGRYSEISLKFAEVEGERQQLVMTVRALKNSLR
notes: prey, AD fusion; also called PN25701; O. sativa Putative Myosin
B1: binds (OsHOS59 aa 1-100).

B2: OsAAK00972 aa 236-350 (other)
chain: AEGGSKGEGVSSNPQESTANAAPEISAAEKQELQNKMAKLMAMLDEVDRKYKHYYHQMQIVVSSFDMVAGSGAAKPYTAVALQTISKHFRCLKDAINDQINVIRKKLGEEESSSG
notes: prey, AD fusion; also called PN23253; O. sativa Putative Homeodomain Protein OsAAK00972
B2: binds (OsHOS59 aa 1-100).

B3: OsBAB07943 aa 525-767 (other)
chain: LADSLNKARSLIHPPVKKPSKLGENLTSLAAVVENEHKRLLARKSIIEKRKEDLERQILEKEKEEEKKRLSVLKKSAEDERIRLLNDVKLREQERIRRQLVEKEKIEAEELLQKQIKEIAKRGGKKPVLQGEVTKEAVMELAMNEQFKERQEMEKKLQKTGKQMDYLERAKRQEEAPLIEQAFQKRLEVEKILHEQEQLREIELSKQHHAGDLQEKNRLSRMLEHKNIFQERIVQRREAEFSR
notes: prey, AD fusion; also called PN23832; O. sativa Putative Eukaryotic Translation Initiation Factor 3 Large Subunit
B3: binds (OsHOS59 aa 1-100).

B4: OsPN23388 aa 229-331 (other)
chain: LKTAKEKGLQRLVHLSSDLARQVATILENAQTFQENRKIGDVPSVNSNSSGVPSTQGEIDEIHQERQKFVEVAKKNVRDRRARRMQSCEVPIHPITPVKLMES
notes: prey, AD fusion; also called Novel Protein PN23388
B4: binds (OsHOS59 aa 1-100).

B5: OsPN23829 aa 2-226 (other)
chain: ALSVEKTSSGREYKVKDLSQADFGRLEIELAEVEMPGLMACRAEFGPSQPFKGARISGSLHMTIQTAVLIETLTALGAEVRWCSCNIFSTQDHAAAAIARDSAAVFAWKGETLEEYWWCTERCLDWGVGGGPDLIVDDGGDATLLIHEGVKAEEEFEKSGKVPDPESTDNAEFKIVLTIIRDGLKSDPSKYRKMKERLVGVSEETTTGVKRLYQMQETGALLFPA
notes: prey, AD fusion; also called Novel Protein PN23829 Putative S-Adenosyl-L-Homocysteine Hydrolase
B5: binds (OsHOS59 aa 1-100).

B6: OsPN23830 aa 4-207 (other)
chain: LEDFQASVEALPAMLQRNYSLMRELDKSLQGVQTGNEQRCQQEIEDIKHGLESGSITYDPAKLKFSDEAIEEQKHCVRIADEKVALASQTYDLVDAHIQQLDQFMRKLEELRQEKEAATTAAAAAAAAAASVATGTPVAATVTASAGTSTADNTPKGGRSSERGRGGRKKTAKVPTEQPAPAIDLELPVDPNEPTYCLCNQVSY
notes: prey, AD fusion; also called Novel Protein PN23830, Similar to A. thaliana Putative PHD-Finger Protein
B6: binds (OsHOS59 aa 1-100).

B7: OsPN23830 aa 1-169 (other)
chain: MGFLEDFQASVEALPAMLQRNYSLMRELDKSLQGVQTGNEQRCQQEIEDIKHGLESGSITYDPAKLKFSDEAIEEQKHCVRIADEKVALASQTYDLVDAHIQQLDQFMRKLEELRQEKEAATTAAAAAAAAAASVATGTPVAATVTASAGTSTADNTPKGGRSSERGRG
notes: prey, AD fusion
B7: binds (OsHOS59 aa 1-100).

B8: OsPN24092 aa 797-948 (other)
chain: SIKDQVQTYLEEINTLKSSKNEKEEMIERLQSEIRSLKFEYDNLKILMSTNDSEKHNLASQVLKLRRALESREDVKQNGVKSDEDNHHATSKRIKHDDGTTGSRNVLPSTNRHNANGDCNGHDRRDAAHDQSVKELEILKERNTALEEELKE
notes: prey, AD fusion; also called Novel Protein PN24092, Similar to O. sativa Putative Myosin
B8: binds (OsHOS59 aa 1-100).

B9: OsPN29084 aa 1-253 (other)
chain: ESGIFRQILRGKLDLESDPWPSISDSAKDLVRNMLIRDPTKRFTAHEVLCHPWIVDDAVAPDKPIDSAVLSRLKHFSAMNKLKKMALRVIAESLSEEEIGGLKELFKMIDTDNSGTITYDELKNGLKRVGSDLMEPEIQALMDAADIDNSGTIDYGEFLAATLHMNKLEREENLVSAFTFFDKDGSGFITIDELSQACEQFGLSDVHLEDMIKDVDQNNDGQIDYSEFAAMMRKGNAGGANAGGVTSTGGTGR
notes: prey, AD fusion; also called Novel Protein PN29084, Fragment, Similar to Soybean Calcium-Dependent Protein Kinase
B9: binds (OsCS aa 316-583).

B10: OsPN29113 aa 1-92 (other)
chain: CKVSYIDAILGTTVKVPTVDGMVDLKIPSGTQPGTTLVMSKKGVPLLGKSNARGDQLVRVQVEIPKRLSSDERKLIEELANLNKAQTANSRR
notes: prey, AD fusion; also called O. sativa DNAJ Homologue
B10: binds (OsCS aa 316-583).

B11: OsPN29115 aa 1-188 (other)
chain: VSFPYSPRPAALAAGARASRVSPVVVAAGGGHQRLMGSLTNTQGLRFGVVVARFNEIVTNLLLQGALETFERYSVKKENITVLSVPGSFEIPVAAQKLGKSGKFDANFVHWRCAFRGDTTHYGAVANSAASGVLSAGLSAEIPCIFGVLTCDDMDQALNRAGGKAGNKGAEAALTAIEMASLFQHHLA
notes: prey, AD fusion; also called Novel Protein PN29115, Fragment, Similar to A. thaliana 6,7-Dimethyl-8-Ribityllumazine Synthase Precursor
B11: binds (OsCS aa 316-583).

B12: OsPN29116 aa 1-169 (other)
chain: GRKPVAAQHYNKGDKDGTSTGSRCTSVAWVPEREGIFVVSHSDGNLYVYDKCKDGNTECTFPAIKDPAQLMISHAKSSKSNPIARWHVCQGSINAISFSPDGAYLATVGRDGYLRVFDFSKEQLIFGGKSYYGALLCCTWSSDGKYLLTGGEDDLVQVWSMDDRKIVAW
notes: prey, AD fusion; also called Novel Protein PN29116, Fragment
B12: binds (OsCS aa 316-583).

B13: OsPN29117 prey clone -7-151 (other)
chain: MLVQRRDGDTGPAVRLRVSHGASFRDVAVPAHSTFGELKGVLTQATGVEPERQRLFFRGKEKSDNEFLHTAGVKDGAKLLLLEKPAPANVEQRAEPVIMDESMMKACEAVGRVRAEVDRLSAKVCDLEKSVFAGRKIEDKDFVVLTELLMM
notes: prey, AD fusion; clone includes a small portion (-7 to 0) of the 5' untranslated region; also called Novel Protein PN29117
B13: binds (OsCS aa 316-583).

B14: OsFDRMADS6 aa 115-246 (other)
chain: EDLESLNLKELQQLEQQLENSLKHIRSRKSQLMLESINELQRKEKSLQEENKVLQKELVEKQKVQKQQVQWDQTQPQTSSSSSSFMMREALPTTNISNYPAAAGERIEDVAAGQPQHVRIGLPPWMLSHING
notes: prey, AD fusion; also called PN19766; O. sativa MADS-box protein FDRMADS6
B14: binds (OsMADS45 aa 50-198).

B15: OsFDRMADS8 aa 104-233 (other)
chain: LDESRRKILGENLEGCSIEELRGLEMKLEKSLHNIRLKKTELLERQIAKLKEKERTLLKDNENLRGKHRNLEAAALVANHMTTTTAPAAWPRDVPMTSSTAGAADAMDVETDLYIGLPGTERSSNRSETG
notes: prey, AD fusion; also called PN20698; O. sativa MADS-box protein FDRMADS8
B15: binds (OsMADS45 aa 50-198).

B16: OsFDRMADS8 aa 63-186 (other)
chain: LQKTIDRYKAYTKDHVNNKTIQQDIQQVKDDTLGLAKKLEALDESRRKILGENLEGCSIEELRGLEMKLEKSLHNIRLKKTELLERQIAKLKEKERTLLKDNENLRGKHRNLEAAALVANHMTT
notes: prey, AD fusion; also called PN20698
B16: binds (OsMADS45 aa 50-198).

B17: OsMADS3 aa 48-177 (other)
chain: FSSRGRLYEYANNSVKSTVERYKKANSDTSNSGTVAEVNAQHYQQESSKLRQQISSLQNANSRTIVGDSINTMSLRDLKQVENRLEKGIAKIRARKNELLYAEVEYMQKREVELQNDNMYLRSKVVENER
notes: prey, AD fusion; also called PN20700; O. sativa MADS box protein MADS3
B17: binds (OsMADS45 aa 50-198).

B18: OsMADS5 aa 113-225 (other)
chain: LLGEDLVPLSLKELEQLENQIEISLMNIRSSKNQQLLDQVFELKRKEQQLQDANKDLKRKIQETSGENMLHISCQDVGPSGHASEANQEFLHHAICDPSLHIGYQAYMDHLNQ
notes: prey, AD fusion; also called PN20770; O. sativa MADS box protein MADS5
B18: binds (OsMADS45 aa 50-198).

B19: OsMADS13 aa 75-263 (other)
chain: ACGSTSGAPLIEVNAQQYYQQESAKLRHQIQMLQNTNKHLVGDNVSNLSLKELKQLESRLEKGIAKIRARKNELLASEINYMAKREIELQNDNMDLRTKIAEEEQQLQQVTVARSAAMELQAAAAAQQQQQNPFAVAAAQLDMKCFFPLNLFEAAAQVQAVAAQRQQIIPTELNLGYHHHLAIPGATAA
notes: prey, AD fusion; also called PN20668; O. sativa MADS box protein MADS13
B19: binds (OsMADS45 aa 50-198).

B20: OsMADS15 aa 92-237 (other)
chain: CHEYRKLKAKIETIQKCHKHLMGEDHESLNLKELQQLEQQLESSLKHIISRKSHLMLESISELQKKERSLQEENKALQKELVERQKNVRGQQQVGQWDQTQVQAQAQAQPQAQTSSSSSSMLRDQQALLPPQNICYPPVMMGERND
notes: prey, AD fusion; also called PN20842; O. sativa MADS box protein MADS15
B20: binds (OsMADS45 aa 50-198).

B21: OsMADS18 aa 57-224 (other)
chain: FSSHSSMEGILERYQRYSFDERAVLEPNTEDQENWGDEYGILKSKLDALQKSQRQLLGEQLDTLTTKELQQLEHQLEYSLKHIRSKKNQLLFESISELQKKEKSLKNQNNVLQKLMETEKEKNNAIINTNREEQNGATPSTSSPTPVTAPDPIPTTNNSQSQPRGSGE
notes: prey, AD fusion; also called PN20912; O. sativa MADS box protein MADS18
B21: binds (OsMADS45 aa 50-198).

B22: OsMADS18 aa 82-154 (other)
chain: EPNTEDQENWGDEYGILKSKLDALQKSQRQLLGEQLDTLTTKELQQLEHQLEYSLKHIRSKKNQLLFESISEL
notes: prey, AD fusion; also called PN20912
B22: binds (OsMADS45 aa 50-198).

From patent publication US20060253917A1 (published 2006)
